{"source": "patent US20240270846A1", "about": "(published 2024)", "data": [{"molecular_target": "T1, CD3 epsilon homodimer protein (UniProt P07766 23-126)", "T1 construct": "construct not described; homodimer as printed; also called CD3 (CD3 epsilon)", "T1 sequence (P07766 23-126)": "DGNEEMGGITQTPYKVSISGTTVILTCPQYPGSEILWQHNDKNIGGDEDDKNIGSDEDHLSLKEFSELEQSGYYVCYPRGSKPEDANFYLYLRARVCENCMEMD", "assay": "SPR Biacore T200, CD3 epsilon homodimer immobilized; vs unaltered GLS3000;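 also: antibody variants flowed as analyte over CD3 epsilon homodimer amine-coupled to a CM4 chip, at 25 °C in HBS-EP+ running buffer, fitted with Biacore T200 Evaluation Software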", "values": [{"binder": "GLS3000 N28H (Kabat) L chain altered form, one-arm antibody with CE115HA000 (antibody, human IgG1, kappa, L234A L235A, N297A, name in Kabat numbering, one-arm antibody) heavy: QVQLVESGGGVVQPGRSLRLSCAASGFTFSNAWMHWVRQAPGKGLEWVAQIKAKSNNYATYYAESVKGRFTISRDDSKNSLYLQMNSLKTEDTAVYYCRYVHYGAYYGVDAWGQGTTVTVSSASTKGPSVFPLAPSSKSTSGGTAALGCLVKDYFPEPVTVSWNSGALTSGVHTFPAVLQSSGLYSLSSVVTVPSSSLGTQTYICNVNHKPSNTKVDKKVEPKSCDKTHTCPPCPAPEAAGGPSVFLFPPKPKDTLMISRTPEVTCVVVDVSHEDPEVKFNWYVDGVEVHNAKTKPREEQYASTYRVVSVLTVLHQDWLNGKEYKCKVSNKALPAPIEKTISKAKGQPREPQVYTLPPSRCELTKNQVSLSCAVKGFYPSDIAVEWESNGQPENNYKTTPPVLDSDGSFFLVSKLTVDKSRWQQGNVFSCSVMHEALHNHYTQKSLSLSPDYKDDDDK EPKSSDKTHTCPPCPAPELLGGPSVFLFPPKPKDTLMISRTPEVTCVVVDVSHEDPEVKFNWYVDGVEVHNAKTKPREEQYNSTYRVVSVLTVLHQDWLNGKEYKCKVSNKALPAPIEKTISKAKGQPREPQVCTLPPSRDELTKNQVSLWCLVKGFYPSDIAVEWESNGQPENNYKTTPPVLDSDGSFFLYSKLTVDKSRWQQGNVFSCSVMHEALHNRYTQKSLSLSP light: DIVMTQSPLSLPVTPGEPASISCRSSQSLVHSHRNTYLHWYQQKPGQAPRLLIYKVSNRFSGVPDRFSGSGSGTDFTLKISRVEAEDVGVYYCGQGTQVPYTFGQGTKLEIKRTVAAPSVFIFPPSDEQLKSGTASVVCLLNNFYPREAKVQWKVDNALQSGNSQESVTEQDSKDSTYSLSSTLTLSKADYEKHKVYACEVTHQGLSSPVTKSFNRGEC", "KD ratio to GLS3000 (Affinity up)": 3}, {"binder": "GLS3000 N28K (Kabat) L chain altered form, one-arm antibody with CE115HA000 (antibody, human IgG1, kappa, L234A L235A, N297A, name in Kabat numbering, one-arm antibody) heavy: QVQLVESGGGVVQPGRSLRLSCAASGFTFSNAWMHWVRQAPGKGLEWVAQIKAKSNNYATYYAESVKGRFTISRDDSKNSLYLQMNSLKTEDTAVYYCRYVHYGAYYGVDAWGQGTTVTVSSASTKGPSVFPLAPSSKSTSGGTAALGCLVKDYFPEPVTVSWNSGALTSGVHTFPAVLQSSGLYSLSSVVTVPSSSLGTQTYICNVNHKPSNTKVDKKVEPKSCDKTHTCPPCPAPEAAGGPSVFLFPPKPKDTLMISRTPEVTCVVVDVSHEDPEVKFNWYVDGVEVHNAKTKPREEQYASTYRVVSVLTVLHQDWLNGKEYKCKVSNKALPAPIEKTISKAKGQPREPQVYTLPPSRCELTKNQVSLSCAVKGFYPSDIAVEWESNGQPENNYKTTPPVLDSDGSFFLVSKLTVDKSRWQQGNVFSCSVMHEALHNHYTQKSLSLSPDYKDDDDK EPKSSDKTHTCPPCPAPELLGGPSVFLFPPKPKDTLMISRTPEVTCVVVDVSHEDPEVKFNWYVDGVEVHNAKTKPREEQYNSTYRVVSVLTVLHQDWLNGKEYKCKVSNKALPAPIEKTISKAKGQPREPQVCTLPPSRDELTKNQVSLWCLVKGFYPSDIAVEWESNGQPENNYKTTPPVLDSDGSFFLYSKLTVDKSRWQQGNVFSCSVMHEALHNRYTQKSLSLSP light: DIVMTQSPLSLPVTPGEPASISCRSSQSLVHSKRNTYLHWYQQKPGQAPRLLIYKVSNRFSGVPDRFSGSGSGTDFTLKISRVEAEDVGVYYCGQGTQVPYTFGQGTKLEIKRTVAAPSVFIFPPSDEQLKSGTASVVCLLNNFYPREAKVQWKVDNALQSGNSQESVTEQDSKDSTYSLSSTLTLSKADYEKHKVYACEVTHQGLSSPVTKSFNRGEC", "KD ratio to GLS3000 (Affinity up)": 2.34}, {"binder": "GLS3000 N28I (Kabat) L chain altered form, one-arm antibody with CE115HA000 (antibody, human IgG1, kappa, L234A L235A, N297A, name in Kabat numbering, one-arm antibody) heavy: QVQLVESGGGVVQPGRSLRLSCAASGFTFSNAWMHWVRQAPGKGLEWVAQIKAKSNNYATYYAESVKGRFTISRDDSKNSLYLQMNSLKTEDTAVYYCRYVHYGAYYGVDAWGQGTTVTVSSASTKGPSVFPLAPSSKSTSGGTAALGCLVKDYFPEPVTVSWNSGALTSGVHTFPAVLQSSGLYSLSSVVTVPSSSLGTQTYICNVNHKPSNTKVDKKVEPKSCDKTHTCPPCPAPEAAGGPSVFLFPPKPKDTLMISRTPEVTCVVVDVSHEDPEVKFNWYVDGVEVHNAKTKPREEQYASTYRVVSVLTVLHQDWLNGKEYKCKVSNKALPAPIEKTISKAKGQPREPQVYTLPPSRCELTKNQVSLSCAVKGFYPSDIAVEWESNGQPENNYKTTPPVLDSDGSFFLVSKLTVDKSRWQQGNVFSCSVMHEALHNHYTQKSLSLSPDYKDDDDK EPKSSDKTHTCPPCPAPELLGGPSVFLFPPKPKDTLMISRTPEVTCVVVDVSHEDPEVKFNWYVDGVEVHNAKTKPREEQYNSTYRVVSVLTVLHQDWLNGKEYKCKVSNKALPAPIEKTISKAKGQPREPQVCTLPPSRDELTKNQVSLWCLVKGFYPSDIAVEWESNGQPENNYKTTPPVLDSDGSFFLYSKLTVDKSRWQQGNVFSCSVMHEALHNRYTQKSLSLSP light: DIVMTQSPLSLPVTPGEPASISCRSSQSLVHSIRNTYLHWYQQKPGQAPRLLIYKVSNRFSGVPDRFSGSGSGTDFTLKISRVEAEDVGVYYCGQGTQVPYTFGQGTKLEIKRTVAAPSVFIFPPSDEQLKSGTASVVCLLNNFYPREAKVQWKVDNALQSGNSQESVTEQDSKDSTYSLSSTLTLSKADYEKHKVYACEVTHQGLSSPVTKSFNRGEC", "KD ratio to GLS3000 (Affinity up)": 2.81}, {"binder": "GLS3000 N28L (Kabat) L chain altered form, one-arm antibody with CE115HA000 (antibody, human IgG1, kappa, L234A L235A, N297A, name in Kabat numbering, one-arm antibody) heavy: QVQLVESGGGVVQPGRSLRLSCAASGFTFSNAWMHWVRQAPGKGLEWVAQIKAKSNNYATYYAESVKGRFTISRDDSKNSLYLQMNSLKTEDTAVYYCRYVHYGAYYGVDAWGQGTTVTVSSASTKGPSVFPLAPSSKSTSGGTAALGCLVKDYFPEPVTVSWNSGALTSGVHTFPAVLQSSGLYSLSSVVTVPSSSLGTQTYICNVNHKPSNTKVDKKVEPKSCDKTHTCPPCPAPEAAGGPSVFLFPPKPKDTLMISRTPEVTCVVVDVSHEDPEVKFNWYVDGVEVHNAKTKPREEQYASTYRVVSVLTVLHQDWLNGKEYKCKVSNKALPAPIEKTISKAKGQPREPQVYTLPPSRCELTKNQVSLSCAVKGFYPSDIAVEWESNGQPENNYKTTPPVLDSDGSFFLVSKLTVDKSRWQQGNVFSCSVMHEALHNHYTQKSLSLSPDYKDDDDK EPKSSDKTHTCPPCPAPELLGGPSVFLFPPKPKDTLMISRTPEVTCVVVDVSHEDPEVKFNWYVDGVEVHNAKTKPREEQYNSTYRVVSVLTVLHQDWLNGKEYKCKVSNKALPAPIEKTISKAKGQPREPQVCTLPPSRDELTKNQVSLWCLVKGFYPSDIAVEWESNGQPENNYKTTPPVLDSDGSFFLYSKLTVDKSRWQQGNVFSCSVMHEALHNRYTQKSLSLSP light: DIVMTQSPLSLPVTPGEPASISCRSSQSLVHSLRNTYLHWYQQKPGQAPRLLIYKVSNRFSGVPDRFSGSGSGTDFTLKISRVEAEDVGVYYCGQGTQVPYTFGQGTKLEIKRTVAAPSVFIFPPSDEQLKSGTASVVCLLNNFYPREAKVQWKVDNALQSGNSQESVTEQDSKDSTYSLSSTLTLSKADYEKHKVYACEVTHQGLSSPVTKSFNRGEC", "KD ratio to GLS3000 (Affinity up)": 3.34}]}]}
